Here are results for 4 molecules from patent US12552866B2, “Internalizing binding molecules targeting receptors involved in cell proliferation or in cell differentiation” (LinXis B.V., priority 2019, dated 2026).

Where two headings read alike, the source gives them in different places.

For test [1], the target named is T1, rPDGFRB (Rattus norvegicus, UniProt Q05030).
T1 construct: GFP; expressed in transfected cells; host or cells: SCC VII cells
The test is described as follows: Binding assay on SCC VII cells transfected with rPDGFRB. As to conditions: IRDye800CW conjugate, read-out: binding affinity (KD) to rPDGFRB. The protocol:
(§1) Based on their high affinity and binding to non-overlapping hPDGRB epitopes, VHHs SPO2P, SP12P SP14P and SP26P were selected for the design of biparatopic VHH constructs and produced in a similar way as described in example 6.1. (FIG. 15A). The binding affinities of the biparatopic constructs were determined with an ELISA assay with the periplasm (FIG. 15A). Moreover, based on their high affinity and binding to non-overlapping rPDGRB epitopes, VHHs SP26P and SP28P were selected for the design of a biparatopic VHH construct and produced in a similar way as described in example 6.1. The formed biparatopic SP28P-SP26P was conjugated to IRDye800CW (SP28P-SP26P-IRDye800CW conjugation method as described in example 9.2) and subjected to a binding assay SCC VII cells transfected with hPDGFRB, rPDGFRB or hIGF2R were performed (FIG. 15B). […] In order to create a biparatopic VHH construct which is cross-reactive for hPDGFRB and rPDGFRB, VHH SPO2P binding to hPDGFRB and VHH SPO26P binding to rPDGFRB were selected and the biparatopic construct SPO2P-SP26P was produced in a similar way as described in example 6.1. (FIG. 15C). Construct SPO2P-SP26P was conjugated to IRDye800CW (SP02P-SP26P-IRDye800CW, conjugation method as described in example 9.2) and subjected to bindings assays on SCC VII cells transfected with hPDGFRB, rPDGFRB or hIGF2R were performed (FIG. 15C). […]

Test [2] deals with T2, hPDGFRB (Homo sapiens, UniProt P09619).
T2 construct: GFP; expressed in transfected cells; host or cells: SCC VII cells
The test is described as follows: Binding assay on SCC VII cells transfected with hPDGFRB. The settings on record: relative to rPDGFRB. On the procedure:
as §1

Test [3] has as its target T3, hIGF2R-ECD (Homo sapiens, UniProt P11717).
T3 construct: recombinant human extracellular domain of IGF2R (hIGF2R-ECD)
The test is described as follows: Binding assay / titration ELISA on recombinant hIGF2R-ECD. As to conditions: KD+SEM, n=2, read-out: calculated affinity (KD). The protocol: The 15 unique hIGF2R binders (Example 1.1, FIG. 2) were produced and purified as described in examples 2 and 3. The apparent affinities were determined with binding assays on hIGF2R-ECD. Briefly, three-fold serial VHH dilutions, starting from 1 μM, were added onto hIGF2R-ECD coated plates. After 2 hours of incubation, plates were washed and bound VHH was detected using a VHH-specific IgG antibody, followed by an IRD800CW-conjugated IgG-specific antibody. […] VHH 13F11 was also produced with a C-terminal free cysteine and conjugated using maleimide chemistry to Alexa Fluor 647 (13F11-A647 in FIG. 8A, conjugation method as described in example 9.2). A titration ELISA (direct read out at 647 nm) with this construct was carried out on hIGF2R-ECD to determine whether the affinity was affected after site directed conjugation (FIG. 8B). The KD and Bmax were calculated in Graphpad (version 8.3), using one-site specific binding analysis (FIG. 8C).
Based on their high affinity and binding to non-overlapping receptor epitopes, VHHs 13F11 and 13E8 were selected for the design of biparatopic and bivalent VHH constructs. Two VHHs were fused with a flexible linker, consisting of three Gly-Gly-Gly-Gly-Ser repeats (FIG. 8A). The sequences were codon optimized for expression in E. coli and obtained as synthesized DNA fragments from GeneArt. The DNA fragments encoding VHHs were cloned into a vector pET28-based vector introducing a C-terminal free cysteine for site-directed conjugation and His6 tag for IMAC purification (FIG. 8A). The constructs were produced and purified as described in example 3. The constructs were conjugated to Alexa Fluor 647 (conjugation method as described in example 9.2) and titration ELISAs on recombinant hIGF2R-ECD (as described in example 4.1) were performed to determine the KD and Bmax (calculated in Graphpad (version 8.3), using one-site specific binding analysis) (FIG. 8C).
Next, 13F11-13E8 was genetically re-engineered to include an in vivo half-life extender in the form of an albumin binding domain (ABD) as described by Johansson et al (Structure, specificity, and mode of interaction for bacterial albumin-binding modules, J. Biol. Chem. 2002 (277): 8114-8120) and subsequently produced and purified as described in Example 3. Subsequently, 13F11-13E8-ABD was conjugated to IRDye800CW (F11E8-ABD-IRD800, conjugation method as described in example 9.2) and the binding affinities of the biparatopic VHH as well as the ABD unit was determined. […] The binding affinity (KD) of F11-E8-ABD-IRD800 to rat serum albumin (RSA) was 30 nM and to mouse serum albumin (MSA) and human serum albumin (HSA) the binding affinity was approximately 200 nM.

Test [4] deals with mock transfected NIH 3T3 2.2 cells. The test is described as follows: Internalization in mock transfected NIH 3T3 2.2 cells. In kind it is cell-based. The settings on record: 25 nM VHH conjugated to Alexa Fluor 647. On the procedure: (§2) To assess if monovalent 13F11 and biparatopic 13F11-13E8 are internalized in the hIGF2R expressing cells, A549 cells (FIG. 16A) and NIH 3T3 2.2 cells transiently transfected with hIGF2R (FIG. 16B) were incubated with 25 nM VHH conjugated to Alexa Fluor 647 (conjugation method as described in example 9.2). A Mouse anti-IGF2R mAb was included to detect IGF2R expression on the hIGF2R transfected cells NIH 3T3 2.2 (FIG. 16B, right column), the mAb was detected with a goat anti-mouse mAb conjugated to Alexa Fluor 555. Additionally, mock transfected NIH 3T3 2.2 cells were incubated with 13F11 and 13F11-13E8 (FIG. 16C). […]
(§3) (FIG. 10D). […] The rate of internalization (endocytic rate constant, ke) of biparatopic constructs 13F11-13E8 and 13E8-13F11 was determined with a kinetic internalization assay on SCC-VII cells transfected with hIGF2R and rIGF2R. […] Subsequently, cells were washed with cold PBS and the non-internalized VHH construct (bound fraction) was separated from the internalized construct (internalized fraction) using an acid-wash, as described above, after which the fluorescence of both fractions were measured. […] Internalization was also observed in rIGF2R expressing SCC cells as a clear increase in fluorescence over time can be shown in FIG. 17 (ke around 0.7 min-1).

Test [5] deals with NIH 3T3 2.2 cells transiently transfected with hIGF2R. The test is described as follows: Internalization in NIH 3T3 2.2 cells transiently transfected with hIGF2R. Format: cell-based, human. The settings on record: 25 nM VHH conjugated to Alexa Fluor 647. The protocol: as §2, §3
The test system of test [6] is A549 cells (IGF2R positive). Kind of test: Internalization in A549 cells (acid wash, confocal). Format: cell-based, human. As to conditions: 25 nM VHH conjugated to Alexa Fluor 647. The protocol: as §2, §3
In test [7] the target is T4, rat PDGFRB receptor (Rattus norvegicus, UniProt Q05030).
T4 construct: GFP; expressed in transfected cells; host or cells: SCC VII cells
Kind of test: Affinity (KD in nM) | SCC-rPDGFRβ cells. The protocol: (§4) Table printed on a drawing sheet, FIG. 6
Head of the field: Affinity (KD in nM) | SCC-rPDGFRβ cells
(§5) The patent's description of the figure: FIG. 6. Amino acid sequence of rat PDGFRB VHHs (CDRs underlined). Affinities are measured on rat PDGFRB ectodomain (ECD) and squamous cell carcinoma cells transfected with rat PDGFRB receptor (SCC-rPDGFRB). Data of the competition assays is included to categorize the VHHs in different epitope groups.
(§6) First copying reader's note: Each sequence is printed over two lines and joined here by a blank; the underlining that marks the CDRs is not reproduced.
Where the first naming reader finds the target: description_of_the_figure: squamous cell carcinoma cells transfected with rat PDGFRB receptor (SCC-rPDGFRB)

The target in test [8] is T5, PDGFRB ECD (Homo sapiens, UniProt P09619).
T5 construct: assay with SP02P and SP26P on PDGFRB ECD
The test is described as follows: Competition ELISA with SP02P and SP26P on PDGFRB ECD. In kind it is binding. The settings on record: versus SPO2P. The protocol:
Competition ELISAs were carried out to determine whether the hPDGFRB specific binders (FIG. 5) and rPDGFRB specific binders (FIG. 6) recognize distinct epitopes on hPDGFRB or rPDGFRB, respectively. The hPDGFRB binding VHHs SPO2P, SP05P, SP12P and SP14P and the rPDGFRB binder SP26P were conjugated to IRDye800CW (VHH-IRDye800CW, conjugation method as described in example 9.2) and each conjugated VHH was mixed with unconjugated competitor in trifold serial dilutions and incubated on immobilized […]. Two VHHs share (part of) the same epitope when the fluorescence signal of the VHH-IRDye800CW decreases upon increasing concentration of unconjugated VHH. Furthermore, using a similar method as described in section 5.1, binding epitope competition between the hPDGFRB binding VHH SPO2P and rPDGFRB binding VHH
(In an ELISA, binding on a coated surface is turned into a signal by an enzyme label.)

For test [9], the target named is rat PDGFRB ectodomain (ECD). Kind of test: Affinity (KD in nM) | PDGFRβ ECD. The protocol:
as §4
Head of the field: Affinity (KD in nM) | PDGFRβ ECD
as §5, §6
Where the first naming reader finds the target: description_of_the_figure: Affinities are measured on rat PDGFRB ectodomain (ECD) and squamous cell carcinoma cells transfected with rat PDGFRB receptor (SCC-rPDGFRB).

Test [10] concerns primary activated rat hepatic stellate cells (HSCs). Kind of test: Binding (staining) to primary activated rat hepatic stellate cells. As to conditions: 50 nM, HSCs from BDL rat, 6 days in culture. Format: cell-based. The protocol:
The cross-reactivity of F11-E8-ABD was further evaluated in binding experiments to primary activated rat hepatic stellate cells (HSCs) by conjugating the construct to Alexa Fluor 488 (FE-A-A488, conjugation method as described in example 9.2). Activated HSCs were obtained from a perfused liver of a cirrhotic bile duct ligated (BDL) rat, the HSCs were isolated using density gradient centrifugation. Cells were kept in culture for 6 days to allow complete activation and then stained with 50 nM FE-A-A488. Activation was determined by an additional staining with alpha-smooth muscle actin (a-SMA).

T1 sequence (Q05030 32-1097): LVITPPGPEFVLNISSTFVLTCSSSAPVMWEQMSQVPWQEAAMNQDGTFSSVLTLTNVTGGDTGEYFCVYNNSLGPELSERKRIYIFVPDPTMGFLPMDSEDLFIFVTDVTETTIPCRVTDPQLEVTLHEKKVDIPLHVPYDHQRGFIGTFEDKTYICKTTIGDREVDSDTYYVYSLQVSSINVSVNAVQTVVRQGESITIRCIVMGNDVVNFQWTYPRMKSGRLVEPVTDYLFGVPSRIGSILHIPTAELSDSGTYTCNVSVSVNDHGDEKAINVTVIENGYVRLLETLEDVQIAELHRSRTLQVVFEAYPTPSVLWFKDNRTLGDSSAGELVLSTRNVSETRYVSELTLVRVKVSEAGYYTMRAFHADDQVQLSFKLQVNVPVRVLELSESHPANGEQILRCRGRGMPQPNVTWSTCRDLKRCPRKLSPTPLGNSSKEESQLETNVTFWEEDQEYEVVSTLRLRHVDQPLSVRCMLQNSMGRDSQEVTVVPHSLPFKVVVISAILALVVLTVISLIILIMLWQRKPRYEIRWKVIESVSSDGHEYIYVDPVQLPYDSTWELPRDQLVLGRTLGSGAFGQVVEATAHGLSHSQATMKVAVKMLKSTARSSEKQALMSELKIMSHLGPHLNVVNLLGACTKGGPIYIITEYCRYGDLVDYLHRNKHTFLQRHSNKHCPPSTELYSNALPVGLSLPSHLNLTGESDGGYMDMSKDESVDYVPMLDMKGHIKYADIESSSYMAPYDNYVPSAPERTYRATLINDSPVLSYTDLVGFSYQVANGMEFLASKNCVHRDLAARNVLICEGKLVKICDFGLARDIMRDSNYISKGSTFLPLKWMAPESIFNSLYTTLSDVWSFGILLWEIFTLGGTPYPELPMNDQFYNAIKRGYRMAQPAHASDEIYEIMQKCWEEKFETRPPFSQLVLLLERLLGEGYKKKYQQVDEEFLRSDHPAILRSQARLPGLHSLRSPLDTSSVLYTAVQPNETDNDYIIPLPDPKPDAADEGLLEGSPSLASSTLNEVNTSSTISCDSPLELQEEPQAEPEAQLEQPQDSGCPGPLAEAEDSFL
T2 sequence (P09619 33-1106): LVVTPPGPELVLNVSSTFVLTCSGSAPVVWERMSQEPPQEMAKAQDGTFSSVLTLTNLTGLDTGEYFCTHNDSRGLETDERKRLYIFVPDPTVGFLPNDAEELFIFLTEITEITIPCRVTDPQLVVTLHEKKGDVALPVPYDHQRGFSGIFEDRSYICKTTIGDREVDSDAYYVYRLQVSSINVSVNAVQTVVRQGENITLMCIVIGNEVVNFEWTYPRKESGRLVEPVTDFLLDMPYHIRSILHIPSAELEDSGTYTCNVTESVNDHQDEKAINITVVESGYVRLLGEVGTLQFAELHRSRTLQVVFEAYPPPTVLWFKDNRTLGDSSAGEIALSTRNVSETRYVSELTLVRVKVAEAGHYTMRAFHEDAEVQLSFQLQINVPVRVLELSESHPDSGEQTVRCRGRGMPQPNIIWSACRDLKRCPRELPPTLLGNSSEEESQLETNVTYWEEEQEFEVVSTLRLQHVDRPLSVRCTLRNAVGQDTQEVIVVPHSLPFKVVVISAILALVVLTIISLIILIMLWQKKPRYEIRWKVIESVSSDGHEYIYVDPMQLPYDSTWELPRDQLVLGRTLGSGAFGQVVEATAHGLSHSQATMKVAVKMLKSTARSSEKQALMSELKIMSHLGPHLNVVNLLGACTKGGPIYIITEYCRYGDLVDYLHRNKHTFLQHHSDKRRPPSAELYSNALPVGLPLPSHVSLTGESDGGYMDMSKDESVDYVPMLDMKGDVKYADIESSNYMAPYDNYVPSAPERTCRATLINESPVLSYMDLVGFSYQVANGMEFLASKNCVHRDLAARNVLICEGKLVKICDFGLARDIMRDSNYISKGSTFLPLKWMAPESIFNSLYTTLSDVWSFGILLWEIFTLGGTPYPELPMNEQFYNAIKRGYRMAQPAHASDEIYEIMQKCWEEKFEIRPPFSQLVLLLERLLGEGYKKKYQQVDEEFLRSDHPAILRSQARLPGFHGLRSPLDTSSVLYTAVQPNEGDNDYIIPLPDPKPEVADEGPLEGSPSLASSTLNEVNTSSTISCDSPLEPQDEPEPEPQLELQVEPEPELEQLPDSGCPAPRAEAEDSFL
T5 sequence (P09619 33-532): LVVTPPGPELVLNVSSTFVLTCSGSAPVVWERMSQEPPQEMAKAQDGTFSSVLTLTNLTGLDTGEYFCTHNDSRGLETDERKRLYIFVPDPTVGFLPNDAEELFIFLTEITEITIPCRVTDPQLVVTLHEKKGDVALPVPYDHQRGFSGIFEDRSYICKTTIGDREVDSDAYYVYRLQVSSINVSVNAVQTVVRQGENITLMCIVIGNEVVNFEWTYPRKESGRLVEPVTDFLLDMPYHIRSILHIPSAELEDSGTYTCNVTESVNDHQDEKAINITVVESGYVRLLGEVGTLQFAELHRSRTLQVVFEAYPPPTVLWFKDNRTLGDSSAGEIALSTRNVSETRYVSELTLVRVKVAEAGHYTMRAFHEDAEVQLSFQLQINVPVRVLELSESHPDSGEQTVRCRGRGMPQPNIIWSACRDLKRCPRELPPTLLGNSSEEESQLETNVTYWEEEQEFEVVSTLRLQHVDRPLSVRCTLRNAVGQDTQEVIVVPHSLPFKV

B1: SP28P-SP26P-IRDye800CW: biparatopic SP28P-SP26P conjugated to IRDye800CW (conjugate)
chain: EVQLVESGGGLVQAGGSLRLSCAASGSIVSFNGINWYRQAPGKQREWVGGITQGGNTMYADSVRGRFTISRDNTKNTMYLQMNSLKPEDTAVYYCRRPPVASWGQGTQVTVSSGGGGSGGGGSGGGGSEVQLVESGGGLVQAGGSLRLSCAASGRSFSSSVMGWFRQTPGKEREFVAATRWTAASTHYADSVKGRFTISRDHAENAVFLQMNSLKPEDTAVYYCAAGNYLDTAQYRYNYWGQGTQVTVSS
modifications: left off: small tags and cut ends
In general, Kd refers to the equilibrium constant for the complex coming apart. As for B1, the Kd in [1] is below 1 nM. In addition, in test [2], the “binding affinity to hPDGFRB” value is “a few orders of magnitude lower”.

B2: 13F11: VHH targeting IGF2R, SEQ ID NO: 273 (protein, listed as Lama glama)
VHH: EVQLVESGGRLVQPGDSLRLSCAASGRTFSDNAMGWFRQAPGKERRFVAGISWAGGSTYYSDSVKGRFTISRDNAKNTVYLQMNSLKPEDTAVYYCAAGLRAWVQRMPKDYNYWGQGTQVTVSS
For B2, the Kd in [3] (construct conjugated to Alexa Fluor 647, direct read out) is 1 ± 0.61 nM; in test [3] (unconjugated VHH, one-site specific binding) it was 0.23 ± 0.05 nM. The “internalization in mock transfected NIH 3T3 2.2 cells” value in test [4] is on record as “did not internalize”. Further, in test [5], the “internalization in hIGF2R transfected NIH 3T3 2.2 cells” value is “did internalise”. Moreover, the “internalization in A549 cells” value in test [6] is recorded as “no internalization was observed”.

B3: SP26P: rPDGFRB binding VHH, SEQ ID NO: 153 (protein, listed as Lama glama)
VHH: EVQLVESGGGLVQAGGSLRLSCAASGRSFSSSVMGWFRQTPGKEREFVAATRWTAASTHYADSVKGRFTISRDHAENAVFLQMNSLKPEDTAVYYCAAGNYLDTAQYRYNYWGQGTQVTVSS
With B3, the equilibrium dissociation constant (Kd) in test [7] was determined as 0.3 nM; in [9] it was 5.1 nM. The “binding epitope competition between SPO2P and SP26P” value in test [8] is listed as “No competition”.

B4: FE-A-A488: 13F11-13E8-ABD conjugated to Alexa Fluor 488 (conjugate)
chain: EVQLVESGGRLVQPGDSLRLSCAASGRTFSDNAMGWFRQAPGKERRFVAGISWAGGSTYYSDSVKGRFTISRDNAKNTVYLQMNSLKPEDTAVYYCAAGLRAWVQRMPKDYNYWGQGTQVTVSSGGGGSGGGGSGGGGSEVQLVESGGGLVQAGGSLRLSCAASRSISPMGWYRQAPGKQRELVAIMPSSGPPIYADSVQGRFTISRDNAKNTVYLQMNSLKPEDTAVYYCNVGGGYWGQGTQVTVSS
modifications: left off: large carriers; small tags and cut ends
As for B4, the “binding to activated rat HSCs” value in test [10] is recorded as “binds to rat HSCs”.
